Data reported in patent US6977240 (Takeda / Millennium, dated 2005).
Values belong to the molecule of their own block, whether it stands above or below them.

Key:
[1] = target: human ObR long form, expressed on transfected cells (human) (UniProt P48357); assay: cell-based or functional assay
[2] = target: T1, murine short form ObR (clone famj5312), expressed on COS cells (mouse, UniProt P48356 23-889); assay: AP activity bound to COS cells transfected with the ObR clone
T1 construct: also called mouse ObR; mouse short form
T1 sequence: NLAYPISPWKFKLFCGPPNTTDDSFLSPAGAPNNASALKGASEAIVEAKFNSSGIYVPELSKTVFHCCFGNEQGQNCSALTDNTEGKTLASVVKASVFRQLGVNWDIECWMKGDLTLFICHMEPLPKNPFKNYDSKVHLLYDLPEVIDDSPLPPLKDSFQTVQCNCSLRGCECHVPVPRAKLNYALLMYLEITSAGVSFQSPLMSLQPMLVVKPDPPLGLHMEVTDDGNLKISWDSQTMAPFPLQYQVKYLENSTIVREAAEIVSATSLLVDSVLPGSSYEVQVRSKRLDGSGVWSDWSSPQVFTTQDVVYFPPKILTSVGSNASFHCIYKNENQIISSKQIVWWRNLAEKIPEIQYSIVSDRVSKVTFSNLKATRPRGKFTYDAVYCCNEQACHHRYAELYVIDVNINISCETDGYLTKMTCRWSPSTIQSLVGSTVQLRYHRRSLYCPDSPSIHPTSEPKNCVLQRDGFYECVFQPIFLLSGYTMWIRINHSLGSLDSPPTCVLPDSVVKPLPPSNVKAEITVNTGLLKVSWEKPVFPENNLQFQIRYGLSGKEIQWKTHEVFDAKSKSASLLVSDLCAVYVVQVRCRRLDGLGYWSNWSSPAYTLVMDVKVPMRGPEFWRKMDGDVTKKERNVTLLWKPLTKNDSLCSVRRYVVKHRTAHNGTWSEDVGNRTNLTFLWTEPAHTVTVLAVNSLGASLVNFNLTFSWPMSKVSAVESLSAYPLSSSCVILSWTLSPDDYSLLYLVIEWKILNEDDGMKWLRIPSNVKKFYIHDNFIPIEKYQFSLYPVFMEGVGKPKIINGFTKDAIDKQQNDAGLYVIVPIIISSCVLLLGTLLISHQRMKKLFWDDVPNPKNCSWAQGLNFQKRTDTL
Description: (§1) In Situ Fusion Protein Binding. Quartered mouse brains, isolated choroid plexus, cells, and cell lines were rinsed once with HBHA (Hank's balanced salt solution with 0.5 mg/ml BSA, 0.1% NaN_3, 20 mM HEPES [pH 7.0]) in 12-well plates. Tissue was then incubated with tissue culture supernatants containing AP-Ob fusion, Ob-AP fusion, or control supernatants (i.e., supernatants containing unfused AP only, containing AP-OB or OB-AP fusion proteins plus 80-fold molar excess of *E. coli*-derived recombinant OB, or supernatants from mock-transfected COS cells), for 75 minutes with gentle rotation, at room temperature. Samples were then treated as described previously (Cheng, H. J. and Flanagan, J. G., 1994, *Cell* 79:157–168).
(§2) After transient transfection of the ObR clone into COS cells, strong binding of 1 nM murine AP-Ob is detected (relative to mock transfected COS cells or ObR transfected COS cells incubated with unfused AP) (FIG. 2A). […] A fusion between AP and human Ob also binds mouse ObR with high affinity, as does a fusion protein with mouse leptin at the N-terminus and AP at the C-terminus (Ob-AP).

[3] = target: T2, Ob receptor in mouse choroid plexus tissue (mouse, UniProt P48356 23-889); assay: AP staining of quartered mouse brain tissue
T2 construct: Native receptor in quartered mouse brain
T2 sequence: T1 sequence
Description: as §1

[4] = target: T1, murine short form ObR (clone famj5312), …; assay: 1 nM AP-OB on transfected COS cells; reference human long form ObR; laid to surface expression by the filing
Description: COS-1, H-35 and Hep3B cells were transfected with plasmid DNA by the DEAE-dextran method (Lopata et al., 1989, *Nucleic Acids Res.* 12:5707–5717); HepG2 cells by the calcium phosphate method (Graham et al., 1973, *Virology* 52:456–461); and COS-7 cells by the lipofectamine method. Subcultures of COS cells were maintained for 16 hours in serum-free medium prior to the activation of STAT proteins by treatment with cytokines for 15 minutes. DNA binding by STAT proteins was determined by EMSA on whole cell extracts as described in Sadowski et al. (1993, *Science* 26:1739–1744). […] CAT activities were quantitated by testing serial dilutions of cell extracts, normalized to the expression of the cotransfected marker plasmid pIE-MUP (Morella et al., 1995, *J. Biol. Chem.* 270:[…]), and are expressed relative the value of the untreated control cultures in each experimental series (defined as =1.0). Quantitative cell surface binding of the AP-OB fusion protein (Section 6) was done essentially as outlined by Cheng and Flanagan (1994, Cell 79:157–168).
To determine whether ObR has the ability to recruit the cellular signaling machinery, COS cells were transiently transfected with expression vectors for the two representative forms of ObR, mouse short form (also corresponding to a mutated form detected in db/db mice) and human long form. […]

[5] = target: T1, murine short form ObR (clone famj5312), …; assay: Scatchard transformation of AP-OB binding to transfected COS cells
Description: (§3) FIG. 2B-1 Binding isotherm and Scatchard analysis of the interaction of AP-Ob and ObR. COS-7 cells transfected with the obR cDNA were incubated with various concentrations of the AP-Ob (mouse) fusion protein FIG. 2B-2. Scatchard transformation is shown as an inset. Paragraph beginning at page 16, line 3, please replace the paragraph with the following text:
as §2
(§4) To determine whether ObR has the ability to recruit the cellular signaling machinery, COS cells were transiently transfected with expression vectors for the two representative forms of ObR, mouse short form (also corresponding to a mutated form detected in db/db mice) and human long form. Two days after transfection, cells were incubated in 1 nM human or mouse alkaline phosphatase-OB, and cell surface expression of ObR was detected as indicated by specific binding of the alkaline phosphatase-OB (AP-OB) fusion protein.

[6] = target: T3, human ObR long form, expressed on transfected cells (human, UniProt P48357 21-1165); assay: as above
T3 construct: also called human long form; long form of ObR
T3 sequence: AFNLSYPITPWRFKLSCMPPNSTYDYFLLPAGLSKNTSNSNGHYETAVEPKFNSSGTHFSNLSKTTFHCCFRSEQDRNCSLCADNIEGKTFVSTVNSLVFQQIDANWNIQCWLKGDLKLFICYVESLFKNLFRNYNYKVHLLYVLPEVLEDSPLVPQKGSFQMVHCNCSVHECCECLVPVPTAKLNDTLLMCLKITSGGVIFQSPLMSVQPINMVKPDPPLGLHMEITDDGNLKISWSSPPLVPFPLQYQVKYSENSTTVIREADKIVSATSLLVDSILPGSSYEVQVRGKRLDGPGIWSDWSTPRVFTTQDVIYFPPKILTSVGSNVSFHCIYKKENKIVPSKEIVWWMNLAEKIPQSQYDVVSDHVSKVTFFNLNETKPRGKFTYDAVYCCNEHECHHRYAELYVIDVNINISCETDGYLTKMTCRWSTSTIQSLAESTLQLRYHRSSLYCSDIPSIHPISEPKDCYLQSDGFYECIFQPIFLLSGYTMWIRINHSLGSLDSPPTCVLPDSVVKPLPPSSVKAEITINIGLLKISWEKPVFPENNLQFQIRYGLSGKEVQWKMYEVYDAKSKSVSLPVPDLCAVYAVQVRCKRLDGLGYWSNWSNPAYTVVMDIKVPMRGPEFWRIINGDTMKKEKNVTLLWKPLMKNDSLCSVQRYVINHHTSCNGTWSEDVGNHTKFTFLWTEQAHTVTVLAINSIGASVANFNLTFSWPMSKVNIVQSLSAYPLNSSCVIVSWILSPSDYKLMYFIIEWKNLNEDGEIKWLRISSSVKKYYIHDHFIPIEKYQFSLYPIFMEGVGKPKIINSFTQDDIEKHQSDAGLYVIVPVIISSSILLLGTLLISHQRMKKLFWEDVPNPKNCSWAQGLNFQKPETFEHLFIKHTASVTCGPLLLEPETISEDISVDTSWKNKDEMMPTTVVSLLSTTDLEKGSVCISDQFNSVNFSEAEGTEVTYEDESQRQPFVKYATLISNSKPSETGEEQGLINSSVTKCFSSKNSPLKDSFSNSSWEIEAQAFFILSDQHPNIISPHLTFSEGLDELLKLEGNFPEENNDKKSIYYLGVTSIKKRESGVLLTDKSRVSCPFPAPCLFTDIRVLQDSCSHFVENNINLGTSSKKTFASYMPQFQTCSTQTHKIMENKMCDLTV
Description: as §3, §2, §4

- pIL6RE-SEAP reporter activity in 293 cells, 100 ng/ml leptin for 24 hours [1]: 8 fold
Molecule: leptin (Section 16, species not stated) (ligand)

- binding result [2]: no binding
- binding result [3]: no binding
B1: unfused AP (alkaline phosphatase) (enzyme, UniProt P05187 23-511, looked up)
chain: IIPVEEENPDFWNREAAEALGAAKKLQPAQTAAKNLIIFLGDGMGVSTVTAARILKGQKKDKLGPEIPLAMDRFPYVALSKTYNVDKHVPDSGATATAYLCGVKGNFQTIGLSAAARFNQCNTTRGNEVISVMNRAKKAGKSVGVVTTTRVQHASPAGTYAHTVNRNWYSDADVPASARQEGCQDIATQLISNMDIDVILGGGRKYMFRMGTPDPEYPDDYSQGGTRLDGKNLVQEWLAKRQGARYVWNRTELMQASLDPSVTHLMGLFEPGDMKYEIHRDSTLDPSLMEMTEAALRLLSRNPRGFFLFVEGGRIDHGHHESRAYRALTETIMFDDAIERAGQLTSEEDTLSLVTADHSHVFSFGGYPLRGSSIFGLAPGKARDRKAYTVLLYGNGPGYVLKDGARPDVTESESGSPEYRQQSAVPLDEETHAGEDVAVFARGPQAHLVHGVQEQTFIAHVMAFAACLEPYTACDLAPPAGTTDAAHPG
notes: Control; also called control AP

- fold binding against the long form [4]: ~10 fold
- Kd [5]: 700 pM
- Kd [6]: 1000 pM
B2: mouse AP-Ob fusion protein (ligand, UniProt P41160 22-167, looked up, not shown: large carriers)
chain: VPIQKVQDDTKTLIKTIVTRINDISHTQSVSAKQRVTGLDFIPGLHPILSLSKMDQTLAVYQQVLTSLPSQNVLQIANDLENLRDLLHLLAFSKSCSLPQTSGLQKPESLDGVLEASLYSTEVVALSRLQGSLQDILQQLDVSPEC
notes: mature; AP at the N-terminus, predicted mature Ob at the C-terminus; used as COS-7 conditioned medium; also called murine AP-Ob; AP-Ob (mouse)
